Test results published in patent US20120172293A1 (Takeda / Millennium, published 2012).
Starred links: 1 amine or outer side, 2 acyl side, 3 side chain; linkers in the order of their positions; H or OH if unused. Non-standard residues stand in square brackets, D forms with d. Primed or numbered codes have the meaning given here. No end group written: not given here. *: point of attachment. Tyr(Me) = O-methyltyrosine, COc1ccc(C[C@H](N[*:1])C(=O)[*:2])cc1; Thr(Me) = O-methylthreonine, CO[C@H](C)[C@H](N[*:1])C(=O)[*:2]; Ser(Me)″ = O-methylserine, COC[C@H](N[*:1])C(=O)[*:2]; Amidino = amidino group, N=C(N)*; Cha = N[C@@H](CC1CCCCC1)C(=O)O; 4Amb = NCc1ccc(C(=O)O)cc1; Isobutyryl = CC(C)C(=O)*; Nva = CCC[C@H](N)C(=O)O; Abu = CC[C@H](N)C(=O)O; Aib = CC(C)(N)C(=O)O; Inp = O=C(O)C1CCNCC1; Bz = O=C(c1ccccc1)*

B1: Isobutanoyl-[Abu26, Cha27,36, Gln28, Aib31]-PYY(25-36) (peptide)
peptide: Isobutyryl-R[Abu][Cha]QNL[Aib]TRQR[Cha]-NH2
SMILES: CC[C@H](NC(=O)[C@H](CCCNC(=N)N)NC(=O)C(C)C)C(=O)N[C@@H](CC1CCCCC1)C(=O)N[C@@H](CCC(N)=O)C(=O)N[C@@H](CC(N)=O)C(=O)N[C@@H](CC(C)C)C(=O)NC(C)(C)C(=O)N[C@H](C(=O)N[C@@H](CCCNC(=N)N)C(=O)N[C@@H](CCC(N)=O)C(=O)N[C@@H](CCCNC(=N)N)C(=O)N[C@@H](CC1CCCCC1)C(N)=O)[C@@H](C)O
B2: Amidino-[Gly23, Pic(4)24, Cha27,36, Ile 28,31, Trp30]-PYY(23-36) (peptide)
peptide: Amidino-G[Inp]RH[Cha]INWITRQR[Cha]-NH2
SMILES: CC[C@H](C)[C@H](NC(=O)[C@H](CC1CCCCC1)NC(=O)[C@H](Cc1c[nH]cn1)NC(=O)[C@H](CCCNC(=N)N)NC(=O)C1CCN(C(=O)CNC(=N)N)CC1)C(=O)N[C@@H](CC(N)=O)C(=O)N[C@@H](Cc1c[nH]c2ccccc12)C(=O)N[C@H](C(=O)N[C@H](C(=O)N[C@@H](CCCNC(=N)N)C(=O)N[C@@H](CCC(N)=O)C(=O)N[C@@H](CCCNC(=N)N)C(=O)N[C@@H](CC1CCCCC1)C(N)=O)[C@@H](C)O)[C@@H](C)CC
notes: also called compound No. 96
B3: Benzoyl-[Nva27, Cha28,36, Aib31]-PYY(25-36) (peptide)
peptide: Bz-RH[Nva][Cha]NL[Aib]TRQR[Cha]-NH2
SMILES: CCC[C@H](NC(=O)[C@H](Cc1c[nH]cn1)NC(=O)[C@H](CCCNC(=N)N)NC(=O)c1ccccc1)C(=O)N[C@@H](CC1CCCCC1)C(=O)N[C@@H](CC(N)=O)C(=O)N[C@@H](CC(C)C)C(=O)NC(C)(C)C(=O)N[C@H](C(=O)N[C@@H](CCCNC(=N)N)C(=O)N[C@@H](CCC(N)=O)C(=O)N[C@@H](CCCNC(=N)N)C(=O)N[C@@H](CC1CCCCC1)C(N)=O)[C@@H](C)O
B4: Isobutanoyl-[Abu26, Cha27,36, His28, Aib31]-PYY(25-36) (peptide)
peptide: Isobutyryl-R[Abu][Cha]HNL[Aib]TRQR[Cha]-NH2
SMILES: CC[C@H](NC(=O)[C@H](CCCNC(=N)N)NC(=O)C(C)C)C(=O)N[C@@H](CC1CCCCC1)C(=O)N[C@@H](Cc1c[nH]cn1)C(=O)N[C@@H](CC(N)=O)C(=O)N[C@@H](CC(C)C)C(=O)NC(C)(C)C(=O)N[C@H](C(=O)N[C@@H](CCCNC(=N)N)C(=O)N[C@@H](CCC(N)=O)C(=O)N[C@@H](CCCNC(=N)N)C(=O)N[C@@H](CC1CCCCC1)C(N)=O)[C@@H](C)O
B5: Benzoyl-[Ser(Me)26, Cha27,28,36, Aib31]-PYY(25-36) (peptide)
peptide: Bz-R[Ser(Me)″][Cha][Cha]NL[Aib]TRQR[Cha]-NH2
SMILES: COC[C@H](NC(=O)[C@H](CCCNC(=N)N)NC(=O)c1ccccc1)C(=O)N[C@@H](CC1CCCCC1)C(=O)N[C@@H](CC1CCCCC1)C(=O)N[C@@H](CC(N)=O)C(=O)N[C@@H](CC(C)C)C(=O)NC(C)(C)C(=O)N[C@H](C(=O)N[C@@H](CCCNC(=N)N)C(=O)N[C@@H](CCC(N)=O)C(=O)N[C@@H](CCCNC(=N)N)C(=O)N[C@@H](CC1CCCCC1)C(N)=O)[C@@H](C)O
B6: Ac-[Abu23, D-Pro24, Abu26, Cha27,28,36, Aib31]-PYY(23-36) (peptide)
peptide: Ac-[Abu][dP]R[Abu][Cha][Cha]NL[Aib]TRQR[Cha]-NH2
SMILES: CC[C@H](NC(=O)[C@H](CCCNC(=N)N)NC(=O)[C@H]1CCCN1C(=O)[C@H](CC)NC(C)=O)C(=O)N[C@@H](CC1CCCCC1)C(=O)N[C@@H](CC1CCCCC1)C(=O)N[C@@H](CC(N)=O)C(=O)N[C@@H](CC(C)C)C(=O)NC(C)(C)C(=O)N[C@H](C(=O)N[C@@H](CCCNC(=N)N)C(=O)N[C@@H](CCC(N)=O)C(=O)N[C@@H](CCCNC(=N)N)C(=O)N[C@@H](CC1CCCCC1)C(N)=O)[C@@H](C)O
B7: Benzoyl-[Asn26, Cha27,28,36, Aib31]-PYY(25-36) (peptide)
peptide: Bz-RN[Cha][Cha]NL[Aib]TRQR[Cha]-NH2
SMILES: CC(C)C[C@H](NC(=O)[C@H](CC(N)=O)NC(=O)[C@H](CC1CCCCC1)NC(=O)[C@H](CC1CCCCC1)NC(=O)[C@H](CC(N)=O)NC(=O)[C@H](CCCNC(=N)N)NC(=O)c1ccccc1)C(=O)NC(C)(C)C(=O)N[C@H](C(=O)N[C@@H](CCCNC(=N)N)C(=O)N[C@@H](CCC(N)=O)C(=O)N[C@@H](CCCNC(=N)N)C(=O)N[C@@H](CC1CCCCC1)C(N)=O)[C@@H](C)O
B8: Benzoyl-[His27, Cha28,36, Aib31]-PYY(25-36) (peptide)
peptide: Bz-RHH[Cha]NL[Aib]TRQR[Cha]-NH2
SMILES: CC(C)C[C@H](NC(=O)[C@H](CC(N)=O)NC(=O)[C@H](CC1CCCCC1)NC(=O)[C@H](Cc1c[nH]cn1)NC(=O)[C@H](Cc1c[nH]cn1)NC(=O)[C@H](CCCNC(=N)N)NC(=O)c1ccccc1)C(=O)NC(C)(C)C(=O)N[C@H](C(=O)N[C@@H](CCCNC(=N)N)C(=O)N[C@@H](CCC(N)=O)C(=O)N[C@@H](CCCNC(=N)N)C(=O)N[C@@H](CC1CCCCC1)C(N)=O)[C@@H](C)O
B9: 4-Aminomethylbenzoyl-[Ala26, Ile28,31, Tyr(Me)36]-PYY(25-36) (peptide)
peptide: [4Amb]RAYINLITRQR[Tyr(Me)]-NH2
modifications: N-terminus assumed
SMILES: CC[C@H](C)[C@H](NC(=O)[C@H](Cc1ccc(O)cc1)NC(=O)[C@H](C)NC(=O)[C@H](CCCNC(=N)N)NC(=O)c1ccc(CN)cc1)C(=O)N[C@@H](CC(N)=O)C(=O)N[C@@H](CC(C)C)C(=O)N[C@H](C(=O)N[C@H](C(=O)N[C@@H](CCCNC(=N)N)C(=O)N[C@@H](CCC(N)=O)C(=O)N[C@@H](CCCNC(=N)N)C(=O)N[C@@H](Cc1ccc(OC)cc1)C(N)=O)[C@@H](C)O)[C@@H](C)CC
notes: also called compound No. 7
B10: Isobutanoyl-[Abu26, Cha27,36, Ser28, Aib31]-PYY(25-36) (peptide)
peptide: Isobutyryl-R[Abu][Cha]SNL[Aib]TRQR[Cha]-NH2
SMILES: CC[C@H](NC(=O)[C@H](CCCNC(=N)N)NC(=O)C(C)C)C(=O)N[C@@H](CC1CCCCC1)C(=O)N[C@@H](CO)C(=O)N[C@@H](CC(N)=O)C(=O)N[C@@H](CC(C)C)C(=O)NC(C)(C)C(=O)N[C@H](C(=O)N[C@@H](CCCNC(=N)N)C(=O)N[C@@H](CCC(N)=O)C(=O)N[C@@H](CCCNC(=N)N)C(=O)N[C@@H](CC1CCCCC1)C(N)=O)[C@@H](C)O

Legend:
[1] = molecular target: human Y2 receptor (human) (UniProt P49146); experiment: cell-based or functional assay
[2] = molecular target: human Y2 receptor (human) (UniProt P49146); experiment: RBA: [125I]-PYY displacement, hY2R/CHO membranes
[3] = molecular target: T1, human Y2 receptor (human, UniProt P49146 1-381); experiment: cell-based or functional assay
T1 sequence (looked up): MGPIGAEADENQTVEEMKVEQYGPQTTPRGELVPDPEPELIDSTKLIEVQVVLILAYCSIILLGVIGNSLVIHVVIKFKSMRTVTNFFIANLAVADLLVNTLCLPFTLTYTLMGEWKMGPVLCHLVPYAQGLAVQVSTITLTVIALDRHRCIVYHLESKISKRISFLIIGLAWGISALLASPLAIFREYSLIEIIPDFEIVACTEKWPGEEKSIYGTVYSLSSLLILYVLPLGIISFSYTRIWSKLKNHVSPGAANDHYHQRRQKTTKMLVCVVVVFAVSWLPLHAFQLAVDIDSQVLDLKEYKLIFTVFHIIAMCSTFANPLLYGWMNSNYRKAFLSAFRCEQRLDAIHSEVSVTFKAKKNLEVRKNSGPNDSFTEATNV

[4] = molecular target: T1, human Y2 receptor; experiment: RBA: [125I]-PYY displacement, hY2R/CHO membranes
Summary of the method: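 Bound radioligand was collected by filtration on PEI-treated GF/C filters, washed with Tris/MgCl₂/NaCl/CHAPS buffer pH 7.4, and counted by scintillation; IC₅₀ values were calculated.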

| Molecule | GBA EC50 Ratio (vs PYY(3-36)), [35S]GTPγS [1] | IC50 Ratio (vs PYY(3-36)) [2] | GBA EC50 Ratio (vs PYY(3-36)), [35S]GTPγS [3] | IC50 Ratio (vs PYY(3-36)) [4] |
| --- | --- | --- | --- | --- |
| Ac-[Lys(Me2)23, D-Pro24, Cha27,28,36, Aib31]-PYY(23-36) (peptide) | 1.3 | 0.92 |  |  |
| Ac-[D-Iva23, D-Pro24, Cha27,28,36, Aib31]-PYY(23-36) (peptide) | 31 | 20 |  |  |
| [N(2-hydroxyethyl)Gly23, D-Pro24, Cha27,28,36, Aib31]-PYY(23-36) (peptide) | 1.2 | 2 |  |  |
| Ac-[Aad23, D-Pro24, Cha27,28,36, Aib31]-PYY(23-36) (peptide) | 1.2 | 2.8 |  |  |
| Ac-[Hyp23, D-Pro24, Cha27,28,36, Aib31]-PYY(23-36) (peptide) | 5 | 7.3 |  |  |
| Ac-[Hse23, D-Pro24, Cha27,28,36, Aib31]-PYY(23-36) (peptide) | 1.6 | 2.5 |  |  |
| Ac-[Iva23, D-Pro24, Cha27,28,36, Aib31]-PYY(23-36) (peptide) | 17 | 13 |  |  |
| [βAla23, D-Pro24, Cha27,28,36, Aib31]-PYY(23-36) (peptide) | 1.2 | 1.7 |  |  |
| [N(iBu)Gly23, D-Pro24, Cha27,28,36, Aib31]-PYY(23-36) (peptide) | 2.4 | 5.8 |  |  |
| Ac-[Ala26, Ile28,31, Arg(Me)35]-PYY(22-36) (peptide) | 13 | 50 |  |  |
| N-4-Pyridiniyl-[Pic(4)23, D-Pro24, Cha27,28,36, Aib31]-PYY(23-36) (peptide) | 3.4 | 4 |  |  |
| [Lys(Ac)23, D-Pro24, Cha27,28,36, Aib31]-PYY(23-36) (peptide) | 2.5 | 5.4 |  |  |
| [(PEG2)23, D-Pro24, Cha27,28,36, Aib31]-PYY(23-36) (peptide) | 0.9 | 0.9 |  |  |
| Ac-[D-Pro24, Pya(4)26, Cha27,36, Aib28,31, Lys30]-PYY(23-36) (peptide) | 1.3 | 1.8 |  |  |
| B1 | 30 | 45 |  |  |
| B2 |  |  | 1.1 ratio | 1.9 ratio |
| Bz-RAYINLI[Thr(Me)]RQRY-NH2 (also called compound No. 74) [4-Aminomethylbenzoyl-[Ala26, Ile28,31, Thr(Me)32]-PYY(25-36)] |  |  | 24 ratio | 14 ratio |
| B3 | 8.6 | 13 |  |  |
| B4 | 13 | 19 |  |  |
| B5 | 8.7 | 18 |  |  |
| B6 | 4 | 6.9 |  |  |
| B7 | 21 | 19 |  |  |
| B8 | 4.3 | 5.6 |  |  |
| B9 |  |  | 4.7 ratio | 5 ratio |
| B10 | 35 | 49 |  |  |
